Data reported in article PMC6262109.
Where two headings read alike, the source gives them in different places.

Columns and labels:
Assay in all cases: EMSA
[1] = molecular target: T1, FLAG-Dmp1 (Dmp1alpha);p53 (mouse?;, UniProt Q8CE22;P04637 1-761;1-393, |)
p53 = p53 (UniProt P04637 1-393)
[2] = molecular target: T1, FLAG-Dmp1 (Dmp1alpha);p53; remark: listed apart in the source
FLAG-Dmp1 (Dmp1alpha) = molecular target: T2, FLAG-Dmp1 (Dmp1alpha) (UniProt Q8CE22 1-761)
T2 sequence: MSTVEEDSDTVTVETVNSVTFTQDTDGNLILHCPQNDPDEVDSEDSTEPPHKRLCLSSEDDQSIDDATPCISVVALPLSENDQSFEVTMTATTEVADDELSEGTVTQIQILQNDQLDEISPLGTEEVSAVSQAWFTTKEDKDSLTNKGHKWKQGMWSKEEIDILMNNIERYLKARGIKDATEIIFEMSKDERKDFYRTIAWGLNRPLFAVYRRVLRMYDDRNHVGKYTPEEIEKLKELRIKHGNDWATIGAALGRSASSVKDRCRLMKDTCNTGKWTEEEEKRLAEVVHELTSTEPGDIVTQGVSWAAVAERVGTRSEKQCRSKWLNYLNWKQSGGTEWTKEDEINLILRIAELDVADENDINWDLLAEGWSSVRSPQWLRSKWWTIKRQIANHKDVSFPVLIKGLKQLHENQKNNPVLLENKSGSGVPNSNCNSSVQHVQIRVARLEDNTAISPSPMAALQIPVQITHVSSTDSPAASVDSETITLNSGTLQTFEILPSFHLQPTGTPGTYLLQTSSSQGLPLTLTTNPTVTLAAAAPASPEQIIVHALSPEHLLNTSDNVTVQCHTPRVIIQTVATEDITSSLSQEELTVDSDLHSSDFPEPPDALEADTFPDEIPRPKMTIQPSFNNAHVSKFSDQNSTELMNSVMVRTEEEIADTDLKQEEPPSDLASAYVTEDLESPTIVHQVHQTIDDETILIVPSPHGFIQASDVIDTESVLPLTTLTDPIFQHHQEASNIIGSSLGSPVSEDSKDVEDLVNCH

B1: mouse p21Cip1 p53 consensus #2 (dsDNA)
DNA 1: AGACTGGGCATGTCTGGGCA
DNA 2: TGCCCAGACATGCCCAGTCT
binding signal [1]: 3 fold vs p53+BSA
binding result (p53): binds

B2: p53-g general p53 consensus (dsDNA)
DNA 1: AGGCATGCCTAGGCATGCCT
DNA 2: AGGCATGCCTAGGCATGCCT
binding signal [2]: 6 fold vs p53 alone

B3: mouse Arf promoter Dmp1 site (dsDNA)
DNA 1: TACCTCGTGGGGCGGATGCACAGAAGCAC
DNA 2: GTGCTTCTGTGCATCCGCCCCACGAGGTA
binding result (FLAG-Dmp1 (Dmp1alpha)): binds
